± gives the standard deviation of the averaged measurements.

Data on 26 variants can be found in the supplement of paper PMC6757056.

B1: library; a variant is named by its letters at N, in order (parent)
chain: GCUGUCACCGAGAAACUGUGAAGUAUAUCUUAAACCUGGGCACUUAAAAGAUAUAUGGAGUUAGUAGUGCAACCUGCUCGGUCUGAUGAGUCCNNNNNNGGACGAAACAGC

Variants of B1 are the subject of data set [1]. The data set can be described thus: normalized RNA/DNA level without ligand (relative to sTRSVctl = 100) (log10 (% of sTRSVctl)); HEK293T; ligand: cyclic di-GMP (c-di-GMP-II aptamer); higher = less ribozyme self-cleavage, higher mRNA level. Conditions: reporter: mCherry (pCS4076), ligand present: no. An outline of the steps:
(§1)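 Total RNA, extracted with EDTA 72 h after HEK293T cells were transfected with 4 µg per 6-well well of reporter-linked ribozyme switch library plasmids, was reverse-transcribed, amplified, barcoded and sequenced. Ligand, if used, was added 1 h before transfection. RNA level was derived from RNA reads divided by DNA reads and normalized to a spiked-in non-cleaving sequence or to the top sequences. This was multiplied by 100 and log10-transformed, with the top set of 25 sequences and a ≥100 DNA read minimum.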

In data set [2] the parent is B1. Kind of data set: normalized RNA/DNA level with ligand (relative to sTRSVctl = 100) (log10 (% of sTRSVctl)); HEK293T; ligand: cyclic di-GMP (c-di-GMP-II aptamer); ligand concentration (+) RNA-Seq: 1 mM; higher = less ribozyme self-cleavage, higher mRNA level. Conditions: reporter: mCherry (pCS4076), ligand present: yes. In outline:
as §1

As to GCUGUCACCGAGAAACUGUGAAGUAUAUCUUAAACCUGGGCACUUAAAAGAUAUAUGGAGUUAGUAGUGCAACCUGCUCGGUCUGAUGAGUCCCACCAAGGACGAAACAGC [CACCAA], the “normalized RNA/DNA level without ligand (log10)” value in data set [1] was found to be 1.4 ± 0.088. In addition, the “normalized RNA/DNA level with ligand (log10)” value in data set [2] was 1.57 ± 0.1.
The like results for GCUGUCACCGAGAAACUGUGAAGUAUAUCUUAAACCUGGGCACUUAAAAGAUAUAUGGAGUUAGUAGUGCAACCUGCUCGGUCUGAUGAGUCCAACAGCGGACGAAACAGC [AACAGC] were, in that order, 1.63 ± 0.078 and 1.78 ± 0.14.
The like results for GCUGUCACCGAGAAACUGUGAAGUAUAUCUUAAACCUGGGCACUUAAAAGAUAUAUGGAGUUAGUAGUGCAACCUGCUCGGUCUGAUGAGUCCAACAGGGGACGAAACAGC [AACAGG] were, in that order, 1.5 ± 0.036 and 1.66 ± 0.14.
Consider GCUGUCACCGAGAAACUGUGAAGUAUAUCUUAAACCUGGGCACUUAAAAGAUAUAUGGAGUUAGUAGUGCAACCUGCUCGGUCUGAUGAGUCCAACCACGGACGAAACAGC [AACCAC], for which, in data set [1], the “normalized RNA/DNA level without ligand (log10)” value was found to be 1.668 ± 0.0054. The “normalized RNA/DNA level with ligand (log10)” value in data set [2] was found to be 1.81 ± 0.11.
With GCUGUCACCGAGAAACUGUGAAGUAUAUCUUAAACCUGGGCACUUAAAAGAUAUAUGGAGUUAGUAGUGCAACCUGCUCGGUCUGAUGAGUCCGACAUGGGACGAAACAGC [GACAUG], the “normalized RNA/DNA level without ligand (log10)” value in data set [1] was 1.61 ± 0.032. Moreover, in data set [2], the “normalized RNA/DNA level with ligand (log10)” value was 1.75 ± 0.12.
As for GCUGUCACCGAGAAACUGUGAAGUAUAUCUUAAACCUGGGCACUUAAAAGAUAUAUGGAGUUAGUAGUGCAACCUGCUCGGUCUGAUGAGUCCGACAUCGGACGAAACAGC [GACAUC], in data set [1], the “normalized RNA/DNA level without ligand (log10)” value was determined as 1.67 ± 0.037. Also, in data set [2], the “normalized RNA/DNA level with ligand (log10)” value came to 1.84 ± 0.059.
With GCUGUCACCGAGAAACUGUGAAGUAUAUCUUAAACCUGGGCACUUAAAAGAUAUAUGGAGUUAGUAGUGCAACCUGCUCGGUCUGAUGAGUCCGACAUUGGACGAAACAGC [GACAUU], the “normalized RNA/DNA level without ligand (log10)” value in data set [1] was found to be 1.66 ± 0.044. For the same variant, in data set [2], the “normalized RNA/DNA level with ligand (log10)” value turned out to be 1.8 ± 0.074.
In the case of GCUGUCACCGAGAAACUGUGAAGUAUAUCUUAAACCUGGGCACUUAAAAGAUAUAUGGAGUUAGUAGUGCAACCUGCUCGGUCUGAUGAGUCCGACCAAGGACGAAACAGC [GACCAA], the “normalized RNA/DNA level without ligand (log10)” value in data set [1] stood at 1.52 ± 0.083. For the same variant, the “normalized RNA/DNA level with ligand (log10)” value in data set [2] is 1.71 ± 0.065.
The like results for GCUGUCACCGAGAAACUGUGAAGUAUAUCUUAAACCUGGGCACUUAAAAGAUAUAUGGAGUUAGUAGUGCAACCUGCUCGGUCUGAUGAGUCCUACAGCGGACGAAACAGC [UACAGC] were, in that order, 1.619 ± 0.0088 and 1.77 ± 0.11.
The like results for GCUGUCACCGAGAAACUGUGAAGUAUAUCUUAAACCUGGGCACUUAAAAGAUAUAUGGAGUUAGUAGUGCAACCUGCUCGGUCUGAUGAGUCCUACAGUGGACGAAACAGC [UACAGU] were, in that order, 1.62 ± 0.021 and 1.8 ± 0.069.
The like results for GCUGUCACCGAGAAACUGUGAAGUAUAUCUUAAACCUGGGCACUUAAAAGAUAUAUGGAGUUAGUAGUGCAACCUGCUCGGUCUGAUGAGUCCUACAGGGGACGAAACAGC [UACAGG] were, in that order, 1.65 ± 0.044 and 1.82 ± 0.081.
As to GCUGUCACCGAGAAACUGUGAAGUAUAUCUUAAACCUGGGCACUUAAAAGAUAUAUGGAGUUAGUAGUGCAACCUGCUCGGUCUGAUGAGUCCUACAUAGGACGAAACAGC [UACAUA], the “normalized RNA/DNA level without ligand (log10)” value in data set [1] was 1.712 ± 0.017. The “normalized RNA/DNA level with ligand (log10)” value in data set [2] is 1.86 ± 0.065.
The like results for GCUGUCACCGAGAAACUGUGAAGUAUAUCUUAAACCUGGGCACUUAAAAGAUAUAUGGAGUUAGUAGUGCAACCUGCUCGGUCUGAUGAGUCCUACAUCGGACGAAACAGC [UACAUC] were, in that order, 1.64 ± 0.037 and 1.81 ± 0.13.
Consider GCUGUCACCGAGAAACUGUGAAGUAUAUCUUAAACCUGGGCACUUAAAAGAUAUAUGGAGUUAGUAGUGCAACCUGCUCGGUCUGAUGAGUCCUACAUUGGACGAAACAGC [UACAUU], for which the “normalized RNA/DNA level without ligand (log10)” value in data set [1] was determined as 1.59 ± 0.034. The “normalized RNA/DNA level with ligand (log10)” value in data set [2] was determined as 1.78 ± 0.09.
Regarding GCUGUCACCGAGAAACUGUGAAGUAUAUCUUAAACCUGGGCACUUAAAAGAUAUAUGGAGUUAGUAGUGCAACCUGCUCGGUCUGAUGAGUCCUACAUGGGACGAAACAGC [UACAUG], in data set [1], the “normalized RNA/DNA level without ligand (log10)” value turned out to be 1.711 ± 0.013. In data set [2], the “normalized RNA/DNA level with ligand (log10)” value is 1.85 ± 0.14.
As to GCUGUCACCGAGAAACUGUGAAGUAUAUCUUAAACCUGGGCACUUAAAAGAUAUAUGGAGUUAGUAGUGCAACCUGCUCGGUCUGAUGAGUCCGACAGCGGACGAAACAGC [GACAGC], the “normalized RNA/DNA level without ligand (log10)” value in data set [1] was 1.74 ± 0.087. Moreover, in data set [2], the “normalized RNA/DNA level with ligand (log10)” value is 1.87 ± 0.14.
Turning to GCUGUCACCGAGAAACUGUGAAGUAUAUCUUAAACCUGGGCACUUAAAAGAUAUAUGGAGUUAGUAGUGCAACCUGCUCGGUCUGAUGAGUCCGACAGUGGACGAAACAGC [GACAGU], the “normalized RNA/DNA level without ligand (log10)” value in data set [1] came to 1.662 ± 0.0086. Besides, in data set [2], the “normalized RNA/DNA level with ligand (log10)” value came out at 1.79 ± 0.11.
Consider GCUGUCACCGAGAAACUGUGAAGUAUAUCUUAAACCUGGGCACUUAAAAGAUAUAUGGAGUUAGUAGUGCAACCUGCUCGGUCUGAUGAGUCCGACAGGGGACGAAACAGC [GACAGG], for which, in data set [1], the “normalized RNA/DNA level without ligand (log10)” value turned out to be 1.759 ± 0.0092. For the same variant, the “normalized RNA/DNA level with ligand (log10)” value in data set [2] is 1.85 ± 0.037.
As for GCUGUCACCGAGAAACUGUGAAGUAUAUCUUAAACCUGGGCACUUAAAAGAUAUAUGGAGUUAGUAGUGCAACCUGCUCGGUCUGAUGAGUCCUACCAAGGACGAAACAGC [UACCAA], the “normalized RNA/DNA level without ligand (log10)” value in data set [1] was determined as 1.66 ± 0.022. Further, in data set [2], the “normalized RNA/DNA level with ligand (log10)” value amounted to 1.8 ± 0.12.
Turning to GCUGUCACCGAGAAACUGUGAAGUAUAUCUUAAACCUGGGCACUUAAAAGAUAUAUGGAGUUAGUAGUGCAACCUGCUCGGUCUGAUGAGUCCCACAUCGGACGAAACAGC [CACAUC], the “normalized RNA/DNA level without ligand (log10)” value in data set [1] is 1.682 ± 0.0036. The “normalized RNA/DNA level with ligand (log10)” value in data set [2] is 1.74 ± 0.034.
On to GCUGUCACCGAGAAACUGUGAAGUAUAUCUUAAACCUGGGCACUUAAAAGAUAUAUGGAGUUAGUAGUGCAACCUGCUCGGUCUGAUGAGUCCCACAUGGGACGAAACAGC [CACAUG], for which the “normalized RNA/DNA level without ligand (log10)” value in data set [1] came to 1.717 ± 0.01. Moreover, the “normalized RNA/DNA level with ligand (log10)” value in data set [2] is 1.84 ± 0.095.
For the variant GCUGUCACCGAGAAACUGUGAAGUAUAUCUUAAACCUGGGCACUUAAAAGAUAUAUGGAGUUAGUAGUGCAACCUGCUCGGUCUGAUGAGUCCAACAUAGGACGAAACAGC [AACAUA], the “normalized RNA/DNA level without ligand (log10)” value in data set [1] stood at 1.52 ± 0.076. Besides, in data set [2], the “normalized RNA/DNA level with ligand (log10)” value was 1.74 ± 0.12.
On to GCUGUCACCGAGAAACUGUGAAGUAUAUCUUAAACCUGGGCACUUAAAAGAUAUAUGGAGUUAGUAGUGCAACCUGCUCGGUCUGAUGAGUCCAACAUUGGACGAAACAGC [AACAUU], for which the “normalized RNA/DNA level without ligand (log10)” value in data set [1] was found to be 1.7 ± 0.037. For the same variant, the “normalized RNA/DNA level with ligand (log10)” value in data set [2] worked out at 1.84 ± 0.067.
The like results for GCUGUCACCGAGAAACUGUGAAGUAUAUCUUAAACCUGGGCACUUAAAAGAUAUAUGGAGUUAGUAGUGCAACCUGCUCGGUCUGAUGAGUCCCACAGGGGACGAAACAGC [CACAGG] were, in that order, 1.68 ± 0.029 and 1.804 ± 0.0089.
Consider GCUGUCACCGAGAAACUGUGAAGUAUAUCUUAAACCUGGGCACUUAAAAGAUAUAUGGAGUUAGUAGUGCAACCUGCUCGGUCUGAUGAGUCCCACAGCGGACGAAACAGC [CACAGC], for which, in data set [1], the “normalized RNA/DNA level without ligand (log10)” value came out at 1.729 ± 0.0089. In addition, the “normalized RNA/DNA level with ligand (log10)” value in data set [2] is 1.84 ± 0.085.
The like results for GCUGUCACCGAGAAACUGUGAAGUAUAUCUUAAACCUGGGCACUUAAAAGAUAUAUGGAGUUAGUAGUGCAACCUGCUCGGUCUGAUGAGUCCUACACUGGACGAAACAGC [UACACU] were, in that order, 1.714 ± 0.014 and 1.84 ± 0.059.
